Reference: the nanobody polyreactivity screen of Harvey et al. (2022)

experiment: yeast display, Sf9 membrane polyspecificity reagent, FACS + sequencing; frameworks hold sequencing errors
Method in brief: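 Galactose induction of a Saccharomyces cerevisiae BJ5465 synthetic nanobody display library ran 36–48 hours. The cells were then stained for 1 hour at 4 °C with 10% biotinylated, detergent-solubilized Sf9 membrane reagent, pulled down on streptavidin microbeads and FACS-sorted into low and high (top ~1%) gates on expression and reagent-binding fluorescence. Labels for polyreactivity follow the gate of origin.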

Q: Which “polyreactivity (PSR sort gate)” value does the source give for “QVKLVESGGGLVQAGGSLRLSCAASGRTFYIYAMGWYRQAPGKERELVAAITYGGGRTFYADSVKGRFTISRDNAKNTVYLQMNSRKPEDTAVYYCAATVRGKRSTYDYWGQGTQVTVSS” here?
A: high polyreactivity

Q: For “QVKLVESGGGLVQAGGSLRLSCAASGRTFYSYAMGWYRQAPGKERELVAAISAGGSTYYADSVKGRFTISRDNAKNTVYLQMTSLKPEDTAVYYCAAPVRYTYWRYPYDYWGQGTQVTVSS”, which “polyreactivity (PSR sort gate)” value is on record?
A: high polyreactivity

Q: Which “polyreactivity (PSR sort gate)” value does the source give for “QVKLVESGGGLVQAGGSLRLSCAASGSIFGGNAMGWYRQAPGKEREFVARITKRGGSTDYADSVKGRFTISRDNAKNTVYLQMNSLKPEDTAVYYCATGWTSKVHYRYGYWGQGTQVTVSS” here?
A: high polyreactivity

Q: Which “polyreactivity (PSR sort gate)” value does the source give for “QVKLVESGGGLVQAGGSLRLSCAASGSIFPRYAMGWYRQAPGKERELVAAITGSGSSTYYADSVKGRFTISRDNAKNTVYFQMNSLKPEDTAVYYCAARKARPPFPHPFDYYWGQGTQVTVSS” here?
A: low polyreactivity

Q: With “QVKLVESGGGLVQAGGSLRLSCAASGSTFLYYGMGWYRQAPGTERELVATITWRGGRTYYADSVKGRFTISRDNAKNTVYLQMNSLKPEDTAVYYCAARVVGSYRKPYPYGLYYWGQGTQVTVSS” as the sequence, how does the “polyreactivity (PSR sort gate)” value read?
A: high polyreactivity

Q: Which “polyreactivity (PSR sort gate)” value does the source give for “QVKLVESGGGLVQAGGSLRLSCAASGSTFWGYAMGWYRQEPGKERELVATITTGGSTNYADSVKGRFTISRDNAKNTVYLQMNSLKPEDTAVYYCAKEVDPGSITSYGAGAHFGFDYWGQGTQVTVSS” here?
A: low polyreactivity

Q: For “QVKLVESGGGLVQAGGSLRLSCADSGLIFGRNARGWYRQAPGKERELVAAISSSGVRTFYADSVKGRFTISRDNAKNTVYLQMNSLKPEDTAVYYCATRGRVYPTKYSLDEDYWGQGTQVTVSS”, which “polyreactivity (PSR sort gate)” value is on record?
A: high polyreactivity

Q: Which “polyreactivity (PSR sort gate)” value does the source give for “QVKLVESGGGLVQAGGSLRLSCADSGSIFGGNTMVWYRQAPGKEREFVAAITWGGNTYYADSVKGRFTISRDNAKNTVYLQTNSLKPEDTAVYYCAAGGRPQYWGRYYYWGQGTQVTVSS” here?
A: high polyreactivity

Q: With “QVKLVESGGGLVQAGGSLRLSCADSGSIFQRYAMGWYSQKPGKAREFVAAISGRGGSTYYADSVKGRFTISRDNAKNTVYLQMNSLKPEDTAVYYCAADSSRFYGRPRYYYWGQGTQVTVSS” as the sequence, how does the “polyreactivity (PSR sort gate)” value read?
A: high polyreactivity

Q: Which “polyreactivity (PSR sort gate)” value does the source give for “QVKLVESGGGLVQAGGSLRLSCAPSGFTFFTYAMGWYRQAPGKERVLVAAITSGGSTNYADSVKGRFTISRDNAKNTVDLQMNSLKPEDTAVYYCAKLAYSDATTVYGYQRSDYWGQGTQVTVSS” here?
A: low polyreactivity

Q: For “QVKLVESGGGLVQAGGSLRLSCPASGSIFYRNTMGWYRQEPGKERELVASITSGSSTFYADSVKGRFTISRDNAKNTVYLQMNSLKAEDTAVYYCAKRRGSPGFRFRAGGAYGYWGQGTQVTVSS”, which “polyreactivity (PSR sort gate)” value is on record?
A: low polyreactivity

Q: For “QVKLVESGGGLVQAGGSLSLSCAASGRIFSYNAMGWYRQAPGKERELVAVISRSDTSTYYADSVKGRFTISRDNAKNTVYLEMNSLKPEDTAVYYCNADGPTYFRYSGYYYWGQGTQVTVSS”, which “polyreactivity (PSR sort gate)” value is on record?
A: low polyreactivity

Q: For “QVKLVESGGGLVQAGGSLSLSCAATGIIFRFYSMGCYRQAPGKERELVAVITSRSDSTYYADSVKGRFTISRDNAKNTFYLQKNSLKPEDTAVYYCNARYPWYYRYSTYDYWGQGTQVTVSS”, which “polyreactivity (PSR sort gate)” value is on record?
A: high polyreactivity

Q: Which “polyreactivity (PSR sort gate)” value does the source give for “QVKLVESGGGLVQSGGSLRLTSAASGSTFPRYAMGWYRQAPGKEREFVAVIWSGGSTYYADSVKGRLTISRDNAKNTVYLQMNSLKPEDTAVYYCAAEYHTLSLDSGYATHDYWGQGTQVTVSS” here?
A: low polyreactivity

Q: Which “polyreactivity (PSR sort gate)” value does the source give for “QVKLVESGGVLVQAGGSLRLSCAASAFTFRWYSMGWYRQATGKERELVARISWDGGSTYYADSVKGRFTISRDNAKNTVYVQMNSLKPEDTAVYYCAIDWYYLRRNYDYWGQGTQVTLSS” here?
A: high polyreactivity

Q: With “QVKLVESVGGLVQAGGSLRFSCAASANTFYYYAMGWYREAPGNDMELVASITWRVGDTYYADSVKGRFTIARDNAKNTVYLQMNSLKPEDTAVYYCAKPRLGRYDSLSYLGDYPGYDYWGQGTQVTVSS” as the sequence, how does the “polyreactivity (PSR sort gate)” value read?
A: low polyreactivity

Q: For “QVKLVETGGGLVQAGGSLRLSSAASGTTFVHYDMGWYRQAPGNERELVAAISRSGASTYYADSVKGRFTISRDHAKNTVYLQMNSLKPDDTAVYYCATIKYYGRRFNYWGQGTQVTVSS”, which “polyreactivity (PSR sort gate)” value is on record?
A: high polyreactivity

Q: Which “polyreactivity (PSR sort gate)” value does the source give for “QVKRVESGGGLVQAGGSLRLSCAASGSTFYDYAMGWYRPAHGKQRELVAAINGNGDSTYYADSVKGRFTISRDNAKNTVYLQMNSLKPEDTAVYYCAAYLGWGYDYWGQGTQVTVSS” here?
A: low polyreactivity

Q: For “QVLLQERGGGLVQAGGSLRLSCAASGTISTDIRMGWYRLAPGKEREFVASIDGCSTTYYAYSVKGRFTISRDNAKNTVYLQMNSLKPEDTAMYYCAAREATEFYLYYWGQGTQVTVSS”, which “polyreactivity (PSR sort gate)” value is on record?
A: low polyreactivity

Q: With “QVLLQESGGGLVEAGGSLRLSCAASGTISTDIRMGWYRLAPGKEREFVASIDGGSTTYYADSVKGRFTISRDNAKNTVYLQMNSLKPQDTAMYYCAAGEATEFYLYYWGQGTQVTVSS” as the sequence, how does the “polyreactivity (PSR sort gate)” value read?
A: low polyreactivity

Q: Which “polyreactivity (PSR sort gate)” value does the source give for “QVLLQESGGGLVQAGGSLRLCCAASGYISGDQYMGWYRQAPGKEREFVAGIGNGTNTNYADSVKGRFTTSRDNAKNTVYLQMNSLKPEDTAVYYCAADPSDGSTLAYWGQGTQVTVSS” here?
A: high polyreactivity

Q: Which “polyreactivity (PSR sort gate)” value does the source give for “QVLLQESGGGLVQAGGSLRLSCAASGNIFSAGGMGCYRQAPVNERELVAGIGTGTSTNYADSVKGRFTISRDNAKNTVYLQMNSLKPEDTAVYYCAAAYYSGLSHWYWGQGTQVTVSS” here?
A: low polyreactivity

Q: With “QVLLQESGGGLVQAGGSLRLSCAASGNIFTAGGMGWYRQAPVNERELVAGIGTGTSTNYADRVKGRFTISRDNAKNTVYLQMNSLKPEDTAVYYCAPAYYSGLSHWYWGQGTQVTVSS” as the sequence, how does the “polyreactivity (PSR sort gate)” value read?
A: low polyreactivity

Q: With “QVLLQESGGGLVQAGGSLRLSCAASGSIFLFYTMGWYRQAPVKEREFVAGITLGTTTYNADSVKGRFTISRDNVKNTVYLQMNSLKPEDTAVYYCAVAVGHYTEFWYWGQGTQVTMSS” as the sequence, how does the “polyreactivity (PSR sort gate)” value read?
A: high polyreactivity

Q: For “QVLLQESGGGLVQAGGSLRLSCASSGTISTDIRMGWYRLAPGKEREFVASIDGCSTTYYADSVKGRFSISRDNAKNTVYLQMNSLKPEDTSMYYCAAREATEFYLYYWGQGTQVTVSS”, which “polyreactivity (PSR sort gate)” value is on record?
A: low polyreactivity

Q: Which “polyreactivity (PSR sort gate)” value does the source give for “QVLLQESGGGLVQAGGSLRVSCAASGTISTDIRMGSYRLAPGKEREFVASIDGCSTTYYADSVKGRFTISRDNAKNTVYLQMNSLKPEDTAMYYCAAREATEYYLYYWGQGTQVTVSS” here?
A: low polyreactivity

Q: Which “polyreactivity (PSR sort gate)” value does the source give for “QVLLQESGGLVQAGCSLRMSCAASGSISTALSMGWYRQAPGKERELVSTISDGASTNYADSVKGRFTISRVNAKNTVYLQMNSLKPEDTAVYYCARYYFGNFGWGQGTQVTVSS” here?
A: high polyreactivity

Q: Which “polyreactivity (PSR sort gate)” value does the source give for “QVLLQESGSGLVQAGGSLRLSCAASGTISTDIRIGLYRLAPRKEREFVASIDGCSTTYYADSVKGRFTISRDNAKNSVYLQMNSLKPEVTAMYYCAAREATEFYLYYWGQGTQVTVSS” here?
A: low polyreactivity

Q: With “QVLLQESVGGLVQAGGSLRLGCAASGTISPAYYMGRYQQEPGKVRQFVAAITYGTNTYYADSVKGRFTISRDNAKNTVYLQMNSLKPEDTAVYYCSATAGYNGAHDYWGQGTQVTVSS” as the sequence, how does the “polyreactivity (PSR sort gate)” value read?
A: low polyreactivity

Q: Which “polyreactivity (PSR sort gate)” value does the source give for “QVLLVESGGALVQAGGSLRLSCAASGYIFRFYTLRGYRQAPGKERELVAAISAGGSTNSADSVKGRFTISRDNAKNTVYLQMNSLKPEDTAVEYCAARYYSRYYWGQGTQVTVSS” here?
A: low polyreactivity
